The values that follow come from article PMC12416549 (2024).

This test concerns the target T1, TNFR1 (Homo sapiens, UniProt P19438).
T1 chain: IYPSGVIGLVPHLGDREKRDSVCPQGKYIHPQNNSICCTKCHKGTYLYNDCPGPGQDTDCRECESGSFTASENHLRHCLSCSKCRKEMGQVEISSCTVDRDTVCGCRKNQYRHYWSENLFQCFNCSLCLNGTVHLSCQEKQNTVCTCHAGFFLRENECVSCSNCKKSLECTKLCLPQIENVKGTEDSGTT
In words: yeast display SC50.

Residue numbers refer to the chain shown, from its start. Numbers in names are those of the source.

B1: K48F (designed binder)
chain: SMEEEVEKAAKEYEKKKKEAIEKHLEKLKAKDKEAAERFLKELEEAAFEYAKDEAKTMSEEEAKRRAKKYKEKVLLSELSEEEQKEIKEAEEKLVRTILKYVEEAAK
On to B1, for which the “apparent Kd (screen)” value was determined as 0.593 nM.

B2: V6Q (designed binder)
chain: B1 chain with V6Q, F48K
In the case of B2, the “apparent Kd (screen)” value was determined as 6.43 nM.

B3: K16E (designed binder)
chain: B1 chain with K16E, F48K
Turning to B3, the “apparent Kd (screen)” value was found to be 1.54 nM.

B4: A51M (designed binder)
chain: B1 chain with F48K, A51M
Consider B4, for which the “apparent Kd (screen)” value was found to be 0.49 nM.

B5: V74L (designed binder)
chain: B1 chain with F48K, V74L
On to B5, for which the “apparent Kd (screen)” value worked out at 0.49 nM.

B6: L75K (designed binder)
chain: B1 chain with F48K, L75K
Consider B6, for which the “apparent Kd (screen)” value is 1.69 nM.

B7: E83A (designed binder)
chain: B1 chain with F48K, E83A
With B7, the “apparent Kd (screen)” value turned out to be 0.405 nM.

B8: K56T (designed binder)
chain: B1 chain with F48K, K56T
B8: the “apparent Kd (screen)” value stood at 3 nM.

B9: E7A (designed binder)
chain: B1 chain with E7A, F48K
For the molecule B9, the “apparent Kd (screen)” value came to 3.63 nM.

B10: K29E (designed binder)
chain: B1 chain with K29E, F48K
In the case of B10, the “apparent Kd (screen)” value worked out at 0.869 nM.

B11: K29F (designed binder)
chain: B1 chain with K29F, F48K
B11: the “apparent Kd (screen)” value was found to be 1.05 nM.

B12: L25H (designed binder)
chain: B1 chain with L25H, F48K
For B12, the “apparent Kd (screen)” value was 0.49 nM.

B13: L25D (designed binder)
chain: B1 chain with L25D, F48K
Turning to B13, the “apparent Kd (screen)” value was determined as 2.73 nM.

B14: F39C (designed binder)
chain: B1 chain with F39C, F48K
Take B14: the “apparent Kd (screen)” value worked out at 5.31 nM.

B15: K64L (designed binder)
chain: B1 chain with F48K, K64L
As to B15, the “apparent Kd (screen)” value stood at 0.446 nM.

B16: V102L (designed binder)
chain: B1 chain with F48K, V102L
On to B16, for which the “apparent Kd (screen)” value was 3 nM.

B17: R65A (designed binder)
chain: B1 chain with F48K, R65A
Turning to B17, the “apparent Kd (screen)” value was determined as 1.27 nM.

B18: S77E (designed binder)
chain: B1 chain with F48K, S77E
For B18, the “apparent Kd (screen)” value came to 0.869 nM.

B19: V6G (designed binder)
chain: B1 chain with V6G, F48K
In the case of B19, the “apparent Kd (screen)” value worked out at 2.48 nM.

B20: K16G (designed binder)
chain: B1 chain with K16G, F48K
As for B20, the “apparent Kd (screen)” value turned out to be 0.49 nM.

B21: E42H (designed binder)
chain: B1 chain with E42H, F48K
As for B21, the “apparent Kd (screen)” value was 5.84 nM.

B22: M58K (designed binder)
chain: B1 chain with F48K, M58K
In the case of B22, the “apparent Kd (screen)” value came to 16.7 nM.

B23: S1W (designed binder)
chain: B1 chain with S1W, F48K
Take B23: the “apparent Kd (screen)” value was 3.63 nM.

B24: A30Y (designed binder)
chain: B1 chain with A30Y, F48K
Turning to B24, the “apparent Kd (screen)” value was 0.446 nM.

B25: V95C (designed binder)
chain: B1 chain with F48K, V95C
For the molecule B25, the “apparent Kd (screen)” value was determined as 11.4 nM.

B26: E83S (designed binder)
chain: B1 chain with F48K, E83S
In the case of B26, the “apparent Kd (screen)” value is 0.869 nM.

B27: E103I (designed binder)
chain: B1 chain with F48K, E103I
Regarding B27, the “apparent Kd (screen)” value worked out at 0.539 nM.

B28: K16C (designed binder)
chain: B1 chain with K16C, F48K
For B28, the “apparent Kd (screen)” value was 1.05 nM.

B29: Y101L (designed binder)
chain: B1 chain with F48K, Y101L
On to B29, for which the “apparent Kd (screen)” value came to 0.405 nM.

B30: V95W (designed binder)
chain: B1 chain with F48K, V95W
With B30, the “apparent Kd (screen)” value turned out to be 13.8 nM.

B31: S77I (designed binder)
chain: B1 chain with F48K, S77I
Regarding B31, the “apparent Kd (screen)” value worked out at 11.4 nM.

B32: K52V (designed binder)
chain: B1 chain with F48K, K52V
As to B32, the “apparent Kd (screen)” value stood at 0.956 nM.

B33: A20P (designed binder)
chain: B1 chain with A20P, F48K
For the molecule B33, the “apparent Kd (screen)” value stood at 3.63 nM.

B34: V74H (designed binder)
chain: B1 chain with F48K, V74H
For B34, the “apparent Kd (screen)” value was determined as 6.43 nM.

B35: E104R (designed binder)
chain: B1 chain with F48K, E104R
On to B35, for which the “apparent Kd (screen)” value is 0.446 nM.

B36: Y50V (designed binder)
chain: B1 chain with F48K, Y50V
B36: the “apparent Kd (screen)” value was 0.0802 nM.

B37: K15E (designed binder)
chain: B1 chain with K15E, F48K
For the molecule B37, the “apparent Kd (screen)” value was determined as 0.869 nM.

B38: A9C (designed binder)
chain: B1 chain with A9C, F48K
On to B38, for which the “apparent Kd (screen)” value is 0.446 nM.

B39: E78N (designed binder)
chain: B1 chain with F48K, E78N
B39: the “apparent Kd (screen)” value came out at 2.73 nM.

B40: L28C (designed binder)
chain: B1 chain with L28C, F48K
In the case of B40, the “apparent Kd (screen)” value was determined as 0.49 nM.

B41: A36K (designed binder)
chain: B1 chain with A36K, F48K
Turning to B41, the “apparent Kd (screen)” value turned out to be 0.49 nM.

B42: E42C (designed binder)
chain: B1 chain with E42C, F48K
Take B42: the “apparent Kd (screen)” value is 22.2 nM.

B43: L94M (designed binder)
chain: B1 chain with F48K, L94M
For the molecule B43, the “apparent Kd (screen)” value worked out at 1.86 nM.

B44: L79V (designed binder)
chain: B1 chain with F48K, L79V
As to B44, the “apparent Kd (screen)” value was 1.27 nM.

B45: A63Q (designed binder)
chain: B1 chain with F48K, A63Q
Take B45: the “apparent Kd (screen)” value was determined as 1.4 nM.

B46: E37C (designed binder)
chain: B1 chain with E37C, F48K
B46: the “apparent Kd (screen)” value is 0.49 nM.

B47: K85F (designed binder)
chain: B1 chain with F48K, K85F
As to B47, the “apparent Kd (screen)” value stood at 0.539 nM.

B48: I21Y (designed binder)
chain: B1 chain with I21Y, F48K
Turning to B48, the “apparent Kd (screen)” value was determined as 0.446 nM.

B49: Y13C (designed binder)
chain: B1 chain with Y13C, F48K
Consider B49, for which the “apparent Kd (screen)” value came to 1.27 nM.

B50: L25W (designed binder)
chain: B1 chain with L25W, F48K
Regarding B50, the “apparent Kd (screen)” value was found to be 0.446 nM.

B51: L99F (designed binder)
chain: B1 chain with F48K, L99F
On to B51, for which the “apparent Kd (screen)” value came to 9.41 nM.

B52: E54K (designed binder)
chain: B1 chain with F48K, E54K
On to B52, for which the “apparent Kd (screen)” value came to 8.56 nM.

B53: Y13M (designed binder)
chain: B1 chain with Y13M, F48K
For B53, the “apparent Kd (screen)” value is 0.593 nM.

B54: A35G (designed binder)
chain: B1 chain with A35G, F48K
In the case of B54, the “apparent Kd (screen)” value was 1.16 nM.

B55: K33L (designed binder)
chain: B1 chain with K33L, F48K
With B55, the “apparent Kd (screen)” value was found to be 0.653 nM.
